{
  "source": "paper PMC10127185",
  "about": "“Low complexity domains of the nucleocapsid protein of SARS-CoV-2 form amyloid fibrils” (Nature Communications, 2023)",
  "proteins": {"B1": {"name": "NCAP central low complexity domain segment (construct LCD, residues 171–263) (domain or fragment)", "chain": "TFYAEGSRGGSQASSRSSSRSRNSSRNSTPGSSRGTSPARMAGNGGDAALALLLLDRLNQLESKMSGKGQQQQGQTVTKKSAAEASKKPRQKRT", "notes": "also called central LCD; LCD segment; not shown: 6xHis-SUMO, N-terminal, cleaved"}},
  "target": "the molecule itself",
  "test": "X-ray fiber diffraction",
  "data": [
    {"protein": "B1", "values": [
      {"measurement": "binding result", "value": "binds"}
    ]}
  ]
}
